Laboratory results as given in article PMC5482323.

Tests used:
basigin (Homo sapiens) = basigin (Homo sapiens) (UniProt P35613); settings: cited from earlier work
[1] = target: basigin (CD147), Ig domains 1 and 2 of the short isoform (aa 22-205) (UniProt P35613); assay: SPR; BIAcore T200; basigin immobilised on a CM5 chip by amine coupling (950 RU); PfRH5 injected as a twofold dilution series from 2 uM, 120 s at 30 uL/min, 300 s dissociation; 20 C; 10 mM HEPES pH 7.4, 150 mM NaCl, 3 mM EDTA, 0.005% Tween-20, 2 mg/mL dextran, 1 mg/mL salmon sperm DNA; global 1:1 interaction model

Substance: PfRH5 (from UniProt Q8IFM5)
- Kd (basigin (Homo sapiens)): 1000 nM

Substance: Plasmodium falciparum reticulocyte-binding protein homolog 5 with C-terminal C-tag (EPEA) (from UniProt Q8IFM5 26-526) (domain or fragment)
- Kd [1]: 390 nM

Substance: Plasmodium falciparum reticulocyte-binding protein homolog 5 with C-terminal hexa-histidine tag (from UniProt Q8IFM5 26-526) (domain or fragment)
- Kd [1]: 830 nM
